From PMC5736716, “A hydrophobic anchor mechanism defines a deacetylase family that suppresses host response against YopJ effectors” (Nature Communications, 2017)

Key:
AtTIPSY1 = molecular target: T1, AtTIPSY1 (Arabidopsis thaliana, UniProt Q8GYK2); test: colorimetric p-nitrophenol release at […] nm; type: biochemical; details: 20 mM HEPES, 150 mM NaCl, pH 7.52-7.55, 0.01% Triton X-100, room temperature
T1 sequence (Q8GYK2 1-262): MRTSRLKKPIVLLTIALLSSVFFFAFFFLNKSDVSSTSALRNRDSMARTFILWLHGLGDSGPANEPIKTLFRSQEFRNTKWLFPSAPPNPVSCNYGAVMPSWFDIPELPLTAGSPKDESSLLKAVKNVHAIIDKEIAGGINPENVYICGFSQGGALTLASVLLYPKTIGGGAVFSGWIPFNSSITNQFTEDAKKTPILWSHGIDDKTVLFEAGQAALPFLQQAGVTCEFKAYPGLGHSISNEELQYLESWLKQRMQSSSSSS

HA:AvrBsT = HA:AvrBsT (Xanthomonas euvesicatoria, UniProt A0ABS8LK00); type: biochemical
[1] = tested on: CCCC(=O)Oc1ccc([N+](=O)[O-])cc1; test: purified protein; details: 20 mM HEPES, 150 mM NaCl, pH 7.52-7.55, 0.01% Triton X-100, room temperature; pH 7.0
[2] = tested on: CC(=O)Oc1ccc([N+](=O)[O-])cc1; test: purified protein; details: 20 mM HEPES, 150 mM NaCl, pH 7.52-7.55, 0.01% Triton X-100, room temperature; pH 7.0
[3] = tested on: CCCCC(=O)Oc1ccc([N+](=O)[O-])cc1; test: purified protein; details: 20 mM HEPES, 150 mM NaCl, pH 7.52-7.55, 0.01% Triton X-100, room temperature; pH 7.0
purified protein [4] = substrate: CCCC(=O)Oc1ccc([N+](=O)[O-])cc1; test: purified protein; details: 20 mM HEPES, 150 mM NaCl, pH 7.52-7.55, 0.01% Triton X-100, room temperature; pH 7.0; remark: listed apart in the source
purified protein [5] = substrate: CCCCC(=O)Oc1ccc([N+](=O)[O-])cc1; test: purified protein; details: 20 mM HEPES, 150 mM NaCl, pH 7.52-7.55, 0.01% Triton X-100, room temperature; pH 7.0; remark: listed apart in the source
purified protein [6] = substrate: CC(=O)Oc1ccc([N+](=O)[O-])cc1; test: purified protein; details: 20 mM HEPES, 150 mM NaCl, pH 7.52-7.55, 0.01% Triton X-100, room temperature; pH 7.0; remark: listed apart in the source

**Q.** Which Michaelis-Menten parameters (AtTIPSY1) does the source give for `CCCCCC(=O)Oc1ccc([N+](=O)[O-])cc1` [pNP hexanoate] here?
**A.** The Michaelis-Menten parameters was “allowed the protein to hydrolyze para-nitrophenyl hexanoate, like AtTIPSY1 is able to”.

**Q.** How did the “autoradiography of auto-acetylation on anti-HA beads” value (HA:AvrBsT) turn out when `CC(=O)SCCNC(=O)CCNC(=O)[C@H](O)C(C)(C)COP(=O)(O)OP(=O)(O)OC[C@H]1O[C@@H](n2cnc3c(N)ncnc32)[C@H](O)[C@@H]1OP(=O)(O)O` [[Acetyl-1-^14C]-Acetyl Coenzyme A] was run?
**A.** Its value is “led to auto-acetylation of the wild type protein, but not the enzymatically inactive mutant”.

**Q.** Which Km [1] does the source give for AtSOBER1 (Arabidopsis thaliana; F65L) here?
**A.** The Km was 4.80 ± 0.23 × 10^-5 M.

**Q.** And the kcat [1]?
**A.** The kcat was 1.10 ± 0.18 × 10^1 s-1.

**Q.** What about the Km [2] of the same molecule?
**A.** Its Km is 3.12 ± 0.44 × 10^-4 M.

**Q.** What about the kcat [2] of the same molecule?
**A.** Its kcat is 1.88 ± 0.23 × 10^2 s-1.

**Q.** Which results are given for AtSOBER1 (Arabidopsis thaliana; L63A)?
**A.** Km [3]: 4 µM; Km [1]: 30 µM; Km [2]: 6 mM

**Q.** How did the Km [2] turn out when AtTIPSY1 (Arabidopsis thaliana; L110F) was run?
**A.** The Km was 1.75 ± 0.33 × 10^-3 M.

**Q.** And the kcat [2]?
**A.** The kcat was 4.82 ± 0.32 × 10^2 s-1.

B1: AtSOBER1 (Arabidopsis thaliana) (protein)
chain: MARTFILWLHGLGDSGPANEPIQTQFKSSELSNASWLFPSAPFNPVTCNNGAVMRSWFDVPELPFKVGSPIDESSVLEAVKNVHAIIDQEIAEGTNPENVFICGLSQGGALTLASVLLYPKTLGGGAVLSGWVPFTSSIISQFPEEAKKTPILWSHGTDDRMVLFEAGQAALPFLKEAGVTCEFKAYPGLGHSISNKELKYIESWIKRRLKGSSSTCLQLNCLKEMFH
**Q.** B1 was tested. Which Km (purified protein [4]) did it give?
**A.** The Km was 227 µM.

**Q.** What about the Km (purified protein [5]) of the same molecule?
**A.** Its Km is 327 µM.

**Q.** What about the Km (purified protein [6]) of the same molecule?
**A.** Its Km is 158 µM.

B2: AtTIPSY1 (Arabidopsis thaliana) (protein)
chain: T1 sequence (Q8GYK2 1-262)
**Q.** For B2, which Km (purified protein [4]) is on record?
**A.** Its Km is 5.03 ± 0.41 × 10^-4 M.

**Q.** And the Km (purified protein [5])?
**A.** The Km was 3.07 ± 0.29 × 10^-4 M.

**Q.** And the kcat (purified protein [5])?
**A.** The kcat was 6.46 ± 0.39 × 10^1 s-1.

**Q.** What about the Km (purified protein [6]) of the same molecule?
**A.** The Km was 1.75 ± 0.18 × 10^-3 M.
